System: Escherichia coli TOP10
Assay: shrunken log2 fold change of peptide-encoding DNA abundance (4.5 h post-induction vs induction); higher = less antimicrobial activity (less host growth inhibition)
Conditions: time post-induction: 4.5 h; library: site-saturation at positions 5, 18, 19, 20
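Also: peptides expressed intracellularly from a pBAD plasmid library in pooled LB shake-flask culture, induced with 0.3% L-arabinose, DNA abundance read by NGS, three biological replicates, DESeq2 with apeglm shrinkage.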

Sequence | shrunken log2 fold change
RRIRWRPPRLPRPRPRPFPSPRP | -0.1
RRIRYRPPRLPRPRPRPISHPRP | -0.675
RRIRVRPPRLPRPRPRPWSQPRP | -0.219
RRIRSRPPRLPRPRPRPDNIPRP | -0.347
RRIRCRPPRLPRPRPRPWSHPRP | -0.0223
RRIRKRPPRLPRPRPRPIHDPRP | 0.00115
RRIRNRPPRLPRPRPRPECQPRP | 0.00386
RRIRARPPRLPRPRPRPEMYPRP | 0.151
RRIRHRPPRLPRPRPRPWSLPRP | -0.121
RRIRARPPRLPRPRPRPRKRPRP | 0.778
RRIRHRPPRLPRPRPRPGKQPRP | -0.173
RRIRLRPPRLPRPRPRPHEPPRP | -0.0213
RRIRPRPPRLPRPRPRPTGNPRP | 0.141
RRIRRRPPRLPRPRPRPTPQPRP | 1.52
RRIRSRPPRLPRPRPRPYPPPRP | -0.377
RRIRSRPPRLPRPRPRPHQSPRP | -0.198
RRIRGRPPRLPRPRPRPMSSPRP | -0.154
RRIRFRPPRLPRPRPRPAQSPRP | 0.0902
RRIRIRPPRLPRPRPRPNNFPRP | -0.388
RRIRDRPPRLPRPRPRPFFQPRP | -0.24
RRIRCRPPRLPRPRPRPAFSPRP | -0.252
RRIRWRPPRLPRPRPRPALDPRP | 0.553
RRIRKRPPRLPRPRPRPDNYPRP | -0.153
RRIRVRPPRLPRPRPRPTYKPRP | -0.512
RRIRFRPPRLPRPRPRPVRTPRP | 0.227

Sequence | shrunken log2 fold change
RRIRCRPPRLPRPRPRPYTYPRP | -0.456
RRIRYRPPRLPRPRPRPCNCPRP | -0.0018
RRIRMRPPRLPRPRPRPQLPPRP | -0.105
RRIRTRPPRLPRPRPRPPVDPRP | 0.244
RRIRKRPPRLPRPRPRPSFYPRP | -0.391
RRIRSRPPRLPRPRPRPVQSPRP | -0.0536
RRIRTRPPRLPRPRPRPWNDPRP | -0.271
RRIRFRPPRLPRPRPRPSANPRP | -0.395
RRIRTRPPRLPRPRPRPINHPRP | -0.718
RRIRARPPRLPRPRPRPQKPPRP | 0.117
RRIRARPPRLPRPRPRPRDIPRP | 0.0507
RRIRPRPPRLPRPRPRPEDSPRP | 0.159
RRIRCRPPRLPRPRPRPRPYPRP | -0.0927
RRIRYRPPRLPRPRPRPNPFPRP | -0.0444
RRIRYRPPRLPRPRPRPARGPRP | 0.515
RRIRPRPPRLPRPRPRPKDYPRP | -0.0674
RRIRDRPPRLPRPRPRPDGKPRP | 0.00996
RRIRERPPRLPRPRPRPHDIPRP | -0.0102
RRIRWRPPRLPRPRPRPCGHPRP | 0.108
RRIRWRPPRLPRPRPRPIGSPRP | -0.0153
RRIRFRPPRLPRPRPRPTKTPRP | -0.0652
RRIRPRPPRLPRPRPRPVAMPRP | 0.0478
RRIRLRPPRLPRPRPRPGSDPRP | -0.149
RRIRMRPPRLPRPRPRPAWYPRP | 0.177
RRIRCRPPRLPRPRPRPNGHPRP | -0.023

Sequence | shrunken log2 fold change
RRIRDRPPRLPRPRPRPTPFPRP | -0.13
RRIRKRPPRLPRPRPRPMYFPRP | -0.0354
RRIRMRPPRLPRPRPRPERCPRP | 0.201
RRIRGRPPRLPRPRPRPIAAPRP | 2.9
RRIRWRPPRLPRPRPRPLNAPRP | 0.438
RRIRARPPRLPRPRPRPGTFPRP | -0.125
RRIRRRPPRLPRPRPRPSRCPRP | -0.0309
RRIRVRPPRLPRPRPRPNLTPRP | -0.186
RRIRCRPPRLPRPRPRPDILPRP | -0.0877
RRIRNRPPRLPRPRPRPHGFPRP | 0.0815
RRIRARPPRLPRPRPRPWTHPRP | 0.04
RRIRCRPPRLPRPRPRPLYGPRP | -0.914
RRIRIRPPRLPRPRPRPDECPRP | 0.0238
RRIRDRPPRLPRPRPRPKERPRP | -0.0193
RRIRARPPRLPRPRPRPLCMPRP | -0.125
RRIRFRPPRLPRPRPRPFNWPRP | -0.975
RRIRARPPRLPRPRPRPTDPPRP | 0.2
RRIRQRPPRLPRPRPRPFLGPRP | -0.38
RRIRLRPPRLPRPRPRPRIQPRP | 0.239
RRIRVRPPRLPRPRPRPRDMPRP | -0.0624
RRIRRRPPRLPRPRPRPCEKPRP | -0.0914
RRIRRRPPRLPRPRPRPSEGPRP | 0.163
RRIRDRPPRLPRPRPRPSFFPRP | -0.168
RRIRKRPPRLPRPRPRPPADPRP | 0.563
RRIRERPPRLPRPRPRPTNHPRP | -0.472

Sequence | shrunken log2 fold change
RRIRRRPPRLPRPRPRPKHPPRP | 0.294
RRIRRRPPRLPRPRPRPHVYPRP | -0.341
RRIRGRPPRLPRPRPRPIANPRP | 0.42
RRIRVRPPRLPRPRPRPRQTPRP | -0.0375
RRIRRRPPRLPRPRPRPLFWPRP | 0.472
RRIRFRPPRLPRPRPRPWNQPRP | 0.0676
RRIRLRPPRLPRPRPRPCWRPRP | 0.0285
RRIRIRPPRLPRPRPRPNAFPRP | -0.0665
RRIRGRPPRLPRPRPRPELFPRP | 1.63
RRIRARPPRLPRPRPRPIEMPRP | 0.563
RRIRMRPPRLPRPRPRPMFNPRP | -0.343
RRIRIRPPRLPRPRPRPMIFPRP | -0.266
RRIRTRPPRLPRPRPRPYWYPRP | -0.574
RRIRCRPPRLPRPRPRPRAYPRP | -0.35
RRIRGRPPRLPRPRPRPMYYPRP | 0.197
RRIRTRPPRLPRPRPRPLYKPRP | -0.274
RRIRQRPPRLPRPRPRPNVTPRP | 0.0508
RRIRLRPPRLPRPRPRPPIDPRP | 0.13
RRIRLRPPRLPRPRPRPSHPPRP | -0.516
RRIRARPPRLPRPRPRPEPIPRP | 0.716
RRIRPRPPRLPRPRPRPACLPRP | 0.0505
RRIRPRPPRLPRPRPRPEKAPRP | 0.385
RRIRERPPRLPRPRPRPREEPRP | -0.00173
RRIRCRPPRLPRPRPRPINSPRP | -0.389
RRIRGRPPRLPRPRPRPSYRPRP | -0.144

Sequence | shrunken log2 fold change
RRIRQRPPRLPRPRPRPRKLPRP | 0.0501
RRIRTRPPRLPRPRPRPVWPPRP | 0.332
RRIRGRPPRLPRPRPRPQPQPRP | 0.706
RRIRCRPPRLPRPRPRPSHSPRP | -0.392
RRIRQRPPRLPRPRPRPATYPRP | -0.287
RRIRIRPPRLPRPRPRPMMCPRP | 0.0233
RRIRKRPPRLPRPRPRPVTKPRP | 0.063
RRIRERPPRLPRPRPRPWAPPRP | -0.0362
RRIRKRPPRLPRPRPRPWIMPRP | -0.132
RRIRGRPPRLPRPRPRPIIDPRP | 0.859
RRIRQRPPRLPRPRPRPVQWPRP | -0.03
RRIRWRPPRLPRPRPRPQSKPRP | -0.0549
RRIRIRPPRLPRPRPRPEHLPRP | -0.105
RRIRMRPPRLPRPRPRPQKMPRP | 0.0453
RRIRSRPPRLPRPRPRPGSSPRP | -0.168
RRIRLRPPRLPRPRPRPPVPPRP | 0.374
RRIRYRPPRLPRPRPRPAGYPRP | 0.0815
RRIRARPPRLPRPRPRPYGDPRP | -0.0672
RRIRNRPPRLPRPRPRPRYSPRP | -0.309
RRIRIRPPRLPRPRPRPHCEPRP | -1.54
RRIRERPPRLPRPRPRPRMRPRP | 0.506
RRIRHRPPRLPRPRPRPTMWPRP | 0.22
RRIRWRPPRLPRPRPRPCYDPRP | -0.00133
RRIRFRPPRLPRPRPRPGSGPRP | 0.161
RRIRIRPPRLPRPRPRPWSCPRP | 0.0678

Sequence | shrunken log2 fold change
RRIRERPPRLPRPRPRPQGEPRP | -0.0686
RRIRRRPPRLPRPRPRPNMSPRP | 2.14
RRIRGRPPRLPRPRPRPCNKPRP | -0.442
RRIRNRPPRLPRPRPRPQVRPRP | 0.05
RRIRNRPPRLPRPRPRPMHDPRP | -0.117
RRIRYRPPRLPRPRPRPETIPRP | -0.495
RRIRDRPPRLPRPRPRPCEQPRP | 0.0856
RRIRIRPPRLPRPRPRPGNDPRP | -0.0662
RRIRCRPPRLPRPRPRPANHPRP | -0.282
RRIRGRPPRLPRPRPRPLVDPRP | 1.1
RRIRFRPPRLPRPRPRPYQQPRP | 0.00163
RRIRHRPPRLPRPRPRPNVWPRP | 0.0763
RRIRQRPPRLPRPRPRPHHAPRP | -0.00332
RRIRLRPPRLPRPRPRPLRCPRP | -0.0152
RRIRLRPPRLPRPRPRPCWKPRP | 0.00126
RRIRMRPPRLPRPRPRPWPPPRP | 1.09
RRIRARPPRLPRPRPRPGLRPRP | 0.331
RRIRKRPPRLPRPRPRPHMMPRP | 0.217
RRIRFRPPRLPRPRPRPFAIPRP | -0.109
RRIRDRPPRLPRPRPRPMPNPRP | -0.258
RRIRWRPPRLPRPRPRPDYAPRP | -0.0174
RRIRLRPPRLPRPRPRPEVLPRP | -0.0871
RRIRQRPPRLPRPRPRPVYCPRP | -0.155
RRIRERPPRLPRPRPRPSRPPRP | 0.168
RRIRHRPPRLPRPRPRPRWHPRP | 0.102

Source: the supplement of paper PMC9112550, “Optimization of the antimicrobial peptide Bac7 by deep mutational scanning” (BMC Biology, 2022)
